Several values for one entry are separate records, joined by “and”; a condition that tells them apart may be missing. Equal values may be shown once. Read-outs that look alike come from different tables or passages of the source.

What is called IC50 is the concentration that gives 50% inhibition. The low end stands for greater potency in that assay, the high end for weaker potency in that assay.

For assay [1], the target named is A*11:01, P04439. The conditions noted are these: modification not given.
Assay [2] addresses B*07:02, P01889. Nature of the assay: ProImmune REVEAL MHC-peptide binding assay, B*07:02.
The target of assay [3] is A*11:01, P04439. Conditions: modification not given. This is another data set of the same source.
In assay [4] the target is T1, A*03:01, P04439.
T1 chain: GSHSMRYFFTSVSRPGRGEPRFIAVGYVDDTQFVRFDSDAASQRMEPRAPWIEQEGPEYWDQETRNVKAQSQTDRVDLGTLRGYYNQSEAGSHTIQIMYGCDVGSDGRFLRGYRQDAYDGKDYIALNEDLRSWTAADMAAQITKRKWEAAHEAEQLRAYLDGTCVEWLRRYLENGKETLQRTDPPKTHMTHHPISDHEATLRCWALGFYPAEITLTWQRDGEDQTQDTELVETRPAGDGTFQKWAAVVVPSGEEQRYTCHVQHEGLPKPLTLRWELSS
Conditions: modification not given.

The target in assay [5] is T2, H-2Kb (mouse), P01901.
T2 chain: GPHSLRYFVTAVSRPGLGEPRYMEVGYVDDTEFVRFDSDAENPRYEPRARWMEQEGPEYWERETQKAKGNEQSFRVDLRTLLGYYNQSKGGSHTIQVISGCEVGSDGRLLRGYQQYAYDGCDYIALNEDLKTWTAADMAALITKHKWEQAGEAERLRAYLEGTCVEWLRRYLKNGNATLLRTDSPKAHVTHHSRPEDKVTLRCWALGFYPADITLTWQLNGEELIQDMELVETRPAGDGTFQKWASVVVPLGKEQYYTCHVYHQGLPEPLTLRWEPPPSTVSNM
The assay is described as follows: ProImmune REVEAL MHC-peptide binding assay, H-2Kb.

Assay [6] has as its target A*11:01, P04439. Conditions: modification not given. The source holds these as a separate data set.
Assay [7] deals with HLA-A*32:01. The assay is described as follows: HLA binding; serotype 1. Conditions: chains peptide; modification not given.
Assay [8] addresses HLA-B*40:01. Nature of the assay: HLA binding; serotype 1. Conditions: chains peptide; modification not given.
Assay [9] concerns the target A*11:01, P04439. The conditions noted are these: modification not given. The source holds these as a separate data set.
Assay [10] has as its target T3, HLA-A*02:01 (human), P04439.
T3 chain: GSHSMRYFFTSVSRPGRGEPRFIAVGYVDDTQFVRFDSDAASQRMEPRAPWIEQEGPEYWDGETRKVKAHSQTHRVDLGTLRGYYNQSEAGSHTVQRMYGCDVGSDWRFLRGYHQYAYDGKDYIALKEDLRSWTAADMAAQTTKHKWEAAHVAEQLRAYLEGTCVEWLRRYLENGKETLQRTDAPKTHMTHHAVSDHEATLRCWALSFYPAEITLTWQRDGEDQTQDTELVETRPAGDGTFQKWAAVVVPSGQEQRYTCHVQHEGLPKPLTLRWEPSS
The conditions noted are these: chains peptide; modification not given.

For assay [11], the target named is HLA-A*02:01 (human), P04439. The assay is described as follows: ProImmune REVEAL MHC-peptide binding assay, A*02:01, score against positive control.
The target of assay [12] is HLA-A*32:01. The assay is described as follows: HLA binding; serotype 3. The conditions noted are these: chains peptide; modification not given.
The target in assay [13] is HLA-B*15:01. Nature of the assay: HLA binding; serotype 3. The conditions noted are these: chains peptide; modification not given.
Assay [14] concerns the target HLA-B*40:01. The assay is described as follows: HLA binding; serotype 3. Conditions: chains peptide; modification not given.
Assay [15] has as its target B*27:05, P13750. The assay is described as follows: ProImmune REVEAL MHC-peptide binding assay, B*27:05.
For assay [16], the target named is A*11:01, P04439. Conditions: modification not given. This is another data set of the same source.
For assay [17], the target named is A*03:01, P04439. Conditions: modification not given. This is another data set of the same source.
The target of assay [18] is A*24:02, P16209. Conditions: modification not given.
The target in assay [19] is A*11:01, P04439. The conditions noted are these: modification not given. The source holds these as a separate data set.
Assay [20] concerns the target T3, HLA-A*02:01 (human), P04439. The conditions noted are these: chains peptide; modification not given.
The target in assay [21] is A*24:02, P16209. Conditions: modification not given. The source holds these as a separate data set.
The target of assay [22] is A*11:01, P04439. The conditions noted are these: modification not given. This is another data set of the same source.
For assay [23], the target named is T1, A*03:01, P04439. Conditions: modification not given.
In assay [24] the target is HLA-A*32:01. Nature of the assay: HLA binding; serotype 4. The conditions noted are these: chains peptide; modification not given.
In assay [25] the target is HLA-B*40:01. Nature of the assay: HLA binding; serotype 4. Conditions: chains peptide; modification not given.
The target in assay [26] is A*24:02, P16209. The conditions noted are these: modification not given. This is another data set of the same source.
Assay [27] deals with A*24:02, P16209. Conditions: modification not given. The source holds these as a separate data set.

In turn, VTFKTAHAK had an IC50 in assay [1] of 16 nM.

In the case of PLSRNSTHE (modifications not checked), in assay [2], the REVEAL ® score at 0 h is 65.

With QLKLNWFKK, the IC50 in [3] worked out at 778 nM; in assay [4], 151 nM.

In [5], QQRVFKEKV (modifications not checked) registered an REVEAL ® score at 0 h of 63.4. As for HATFTMRLL (modifications not checked), in assay [5], the REVEAL ® score at 0 h was 69.5. VTFKVPHAK came in with an IC50 in assay [6] of 14 nM. Regarding KQWFLDLPL […, serotype 1, listing 1 of 2 here], the IC50 worked out at 8 nM in [7] and 398 nM in [8].

As to VTFKNPHAK, the IC50 in assay [9] is 17 nM. RQWFFDLPL (modifications not checked) [… (SEQ ID NO: 343)]: the IC50 in assay [10] was 39 nM and 12 nM. In assay [11], this molecule registered an REVEAL Score of 80.5. In the case of RQWFFDLPL, the IC50 in assay [12] worked out at 7 nM; in [13] it was 80 nM; in assay [14], 51 nM. As for LSRNSTHEM (modifications not checked), the REVEAL ® score at 0 h in [5] came to 51.1; in assay [2] it was 124. On to CHATFTMRL (modifications not checked), for which, in assay [5], the REVEAL ® score at 0 h came out at 60.3. With ARGYISTRV (modifications not checked), the REVEAL ® score at 0 h in [15] is 125. As to ALTLHWFRK, the IC50 in [16] was determined as 47 nM; in assay [17], 34 nM. In the case of SYAMCLNTF, in assay [18], the half-inhibitory concentration (IC50) worked out at 540 nM. In assay [19], VTFKNAHAK displayed an IC50 of 17 nM.

In assay [20], KQWFLDLPL (modifications not checked) [… (SEQ ID NO: 341)] came in with an IC50 of 11 nM. In [11], this molecule returned an REVEAL Score of 86. For the molecule LMCHATFTM (modifications not checked), the results for the REVEAL ® score at 0 h in assay [5] and in assay [15] were 59 and 98.2, respectively.

SRNSTHEMY (modifications not checked): the REVEAL ® score at 0 h in [2] was 52.

For the molecule LAPTRVVAA (modifications not checked), the REVEAL ® score at 0 h in assay [5] is 102. In assay [5], LMYFHRRDL (modifications not checked) displayed an REVEAL ® score at 0 h of 54.9.

The molecule SYTMCSGKF returned an IC50 in assay [21] of 222 nM. Turning to ALKINWYRK, the IC50 amounted to 376 nM in assay [22] and 193 nM in assay [23]. YGLNTFTNM (modifications not checked) returned an REVEAL ® score at 0 h in assay [5] of 75.4.

For FKLTYQNKV (modifications not checked), the REVEAL ® score at 0 h in [15] turned out to be 53.7. As to KQWFLDLPL […, serotype 4, listing 2 of 2 here], the values for the IC50 in assay [24] and in assay [25] were 8 nM and 398 nM, respectively. In [26], SYVMCTGSF came in with an IC50 of 104 nM.

FKPGTSGSP (modifications not checked) came in with an REVEAL ® score at 0 h in assay [5] of 45.7.

Take ATFTMRLLS (modifications not checked): in assay [5], the REVEAL ® score at 0 h was 55.6. Consider RRGDLPVWL (modifications not checked), for which the REVEAL ® score at 0 h in assay [15] came out at 145. In [27], SYSMCTGKF showed an IC50 of 115 nM.

(Values after patent US20190008947A1.)
